Measured values taken from patent publication CN114634565A.

Assays:
[1] = target: 裂谷热病毒Gn蛋白 (GenBank: DQ380208.1) (裂谷热病毒 (Rift Valley fever virus))
[2] = target: 裂谷热病毒Gn蛋白 (GenBank: DQ380208.1) (裂谷热病毒 (Rift Valley fever virus)); remark: listed apart in the source
[3] = target: 裂谷热病毒Gn蛋白 (GenBank: DQ380208.1) (裂谷热病毒 (Rift Valley fever virus)); remark: listed apart in the source

B1: 抗裂谷热病毒的单克隆抗体E44 (antibody, V domains shown)
VH: QVQLQQWGEGLVNPSEALSLTCAVYGDSISDDYHWSWIRQPPGKGLEWIGYIFGSSAGTNYNPSLKNRVTISKDTSKNQFSLELTSVTAADTAVYYCARDVTTDRLDVWGPGVPVTVSS
VL: NFMLTQPPSVSADQGQRVTISCSGSSFNVRRYYVSWYQQVPGAAPKLLISDVNKRPSGVSDRFSGSQSGTSATLGISGLRPEDEADYYCSVWDSSLGARVFGGGTRLTVLG
OD值 (OD450nm-OD630nm) [1]: 2.35 | EC50 [2]: 2.66 ng/mL | Kd [3]: 2.58 nM
